# Data as given in ChEMBL document CHEMBL2073859, “Transport of 7-ethyl-10-hydroxycamptothecin (SN-38) by breast cancer resistance protein ABCG2 in human lung cancer cells” (Biochem Biophys Res Commun, 2001).
# What was measured:
# [1] = substrate: CCc1c2c(nc3ccc(OC[C@@H]4O[C@H](C(=O)O)[C@@H](O)[C@H](O)[C@H]4O)cc13)-c1cc3c(c(=O)n1C2)COC(=O)[C@]3(O)CC; experiment: (§1) TP_TRANSPORTER: uptake in membrane vesicle from PC-6/SN2-5H cells; format: functional, cell membranes
# [2] = substrate: CCc1c2c(nc3ccc(O)cc13)-c1cc3c(c(=O)n1C2)COC(=O)[C@]3(O)CC; experiment: as §1; format: functional, cell membranes
protein,measurement,setting,value
Broad substrate specificity ATP-binding cassette transporter ABCG2 (Homo sapiens) (protein) MSSSNVEVFIPVSQGNTNGFPATASNDLKAFTEGAVLSFHNICYRVKLKSGFLPCRKPVEKEILSNINGIMKPGLNAILGPTGGGKSSLLDVLAARKDPSGLSGDVLINGAPRPANFKCNSGYVVQDDVVMGTLTVRENLQFSAALRLATTMTNHEKNERINRVIQELGLDKVADSKVGTQFIRGVSGGERKRTSIGMELITDPSILFLDEPTTGLDSSTANAVLLLLKRMSKQGRTIIFSIHQPRYSIFKLFDSLTLLASGRLMFHGPAQEALGYFESAGYHCEAYNNPADFFLDIINGDSTAVALNREEDFKATEIIEPSKQDKPLIEKLAEIYVNSSFYKETKAELHQLSGGEKKKKITVFKEISYTTSFCHQLRWVSKRSFKNLLGNPQASIAQIIVTVVLGLVIGAIYFGLKNDSTGIQNRAGVLFFLTTNQCFSSVSAVELFVVEKKLFIHEYISGYYRVSSYFLGKLLSDLLPMRMLPSIIFTCIVYFMLGLKPKADAFFVMMFTLMMVAYSASSMALAIAAGQSVVSVATLLMTICFVFMMIFSGLLVNLTTIASWLSWLQYFSIPRYGFTALQHNEFLGQNFCPGLNATGNNPCNYATCTGEEYLVKQGIDLSPWGLWKNHVALACMIVIFLTIAYLKLLFLKKYS,Km,[1],26 µM
same,Km,[2],4 µM
